Test results published in the supplement of paper PMC10567573.

B1: MATN2 (parent)
chain: TDDSYSCHCLKGFTLNPDKKTCRR

Variants of: B1
Test: protein stability index of a GFP-peptide fusion (GPS, HEK-293T) (PSI 1-6); higher = more stable
Settings: c terminus: a fixed tail appended
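Note: lentivirally expressed fusions sorted by FACS into six bins by GFP to DsRed ratio, PSI derived from sequencing read proportions per bin multiplied by bin number.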

Variant | protein stability index
TDDSYSCHCLKGWTLNPDKKTCRR | 2.44
TDDSYSCHCLKGMTLNPDKKTCRR | 2.71
TDDSYSCHCLKGITLNPDKKTCRR | 2.05
TDDSYSCHCLKGCTLNPDKKTCRR | 2.39
TDDSYSCHCLKGETLNPDKKTCRR | 2.45
TDDSYSCHCLKGATLNPDKKTCRR | 2.88
TDDSYSCHCLKGRTLNPDKKTCRR | 2.14
TDDSYSCHCLKGDTLNPDKKTCRR | 2.27
TDDSYSCHCLKGGTLNPDKKTCRR | 2.88
TDDSYSCHCLKGHTLNPDKKTCRR | 1.98
TDDSYSCHCLKGPTLNPDKKTCRR | 2.74
TDDSYSCHCLKGYTLNPDKKTCRR | 3.04
TDDSYSCHCLKGKTLNPDKKTCRR | 2.55
TDDSYSCHCLKGVTLNPDKKTCRR | 2.21
TDDSYSCHCLKGLTLNPDKKTCRR | 2.77
TDDSYSCHCLKGSTLNPDKKTCRR | 2.21
TDDSYSCHCLKGTTLNPDKKTCRR | 2.3
TDDSYSCHCLKGNTLNPDKKTCRR | 1.81
TDDSYSCHCLKGQTLNPDKKTCRR | 2.02
TDDSYSCHCLKGFALNPDKKTCRR | 2.69
TDDSYSCHCLKGFCLNPDKKTCRR | 2.31
TDDSYSCHCLKGFGLNPDKKTCRR | 2.24
TDDSYSCHCLKGFDLNPDKKTCRR | 2.14
TDDSYSCHCLKGFFLNPDKKTCRR | 1.32

Variant | protein stability index
TDDSYSCHCLKGFELNPDKKTCRR | 2.23
TDDHYSCHCLKGFTLNPDKKTCRR | 2.66
TDDRYSCHCLKGFTLNPDKKTCRR | 2.03
TDDKYSCHCLKGFTLNPDKKTCRR | 2.56
TDDTYSCHCLKGFTLNPDKKTCRR | 2.04
TDDLYSCHCLKGFTLNPDKKTCRR | 1.84
TDDVYSCHCLKGFTLNPDKKTCRR | 2.22
TDDWYSCHCLKGFTLNPDKKTCRR | 1.81
TDDYYSCHCLKGFTLNPDKKTCRR | 1.77
TDDGYSCHCLKGFTLNPDKKTCRR | 1.88
TDDIYSCHCLKGFTLNPDKKTCRR | 2.87
TDDPYSCHCLKGFTLNPDKKTCRR | 2.64
TDDMYSCHCLKGFTLNPDKKTCRR | 2.22
TDDQYSCHCLKGFTLNPDKKTCRR | 2.3
TDDNYSCHCLKGFTLNPDKKTCRR | 1.23
TDDSYSCHCLSGFTLNPDKKTCRR | 2.23
TDDSYSCHCLHGFTLNPDKKTCRR | 2.49
TDDSYSCHCLEGFTLNPDKKTCRR | 2.87
TDDSYSCHCLLGFTLNPDKKTCRR | 2.04
TDDSYSCHCLAGFTLNPDKKTCRR | 2.27
TDDSYSCHCLIGFTLNPDKKTCRR | 2.08
TDDSYSCHCLPGFTLNPDKKTCRR | 2.36
TDDSYSCHCLGGFTLNPDKKTCRR | 2.78
TDDSYSCHCLCGFTLNPDKKTCRR | 2.51

Variant | protein stability index
TDDSYSCHCLTGFTLNPDKKTCRR | 1.96
TDDSYSCHCLDGFTLNPDKKTCRR | 2.44
TDDSYSCHCLNGFTLNPDKKTCRR | 2.15
TDDSYSCHCLFGFTLNPDKKTCRR | 2.27
TDDSYSCHCLRGFTLNPDKKTCRR | 2.04
TDDSYSCHCLQGFTLNPDKKTCRR | 1.83
TDDSYSCHCLWGFTLNPDKKTCRR | 2.2
TDDSYSCHCLYGFTLNPDKKTCRR | 2.4
TDDSYSCHCLVGFTLNPDKKTCRR | 2.06
TDDSYSCHCLMGFTLNPDKKTCRR | 1.61
TDDSYSCHFLKGFTLNPDKKTCRR | 3.47
TDDSYSCHYLKGFTLNPDKKTCRR | 3.88
TDDSYSCHRLKGFTLNPDKKTCRR | 3.88
TDDSYSCHWLKGFTLNPDKKTCRR | 3.79
TDDSYSCHMLKGFTLNPDKKTCRR | 3.96
TDDSYSCHTLKGFTLNPDKKTCRR | 3.24
TDDSYSCHLLKGFTLNPDKKTCRR | 3.93
TDDSYSCHGLKGFTLNPDKKTCRR | 4.47
TDDSYSCHNLKGFTLNPDKKTCRR | 4.57
TDDSYSCHELKGFTLNPDKKTCRR | 4.37
TDDSYSCHHLKGFTLNPDKKTCRR | 3.75
TDDSYSCHQLKGFTLNPDKKTCRR | 4.1
TDDSYSCHSLKGFTLNPDKKTCRR | 4.48
TDDSYSCHALKGFTLNPDKKTCRR | 4.6

Variant | protein stability index
TDDSYSCHKLKGFTLNPDKKTCRR | 4.03
TDDSYSCHPLKGFTLNPDKKTCRR | 4.53
TDDSYSCHVLKGFTLNPDKKTCRR | 3.73
TDDSYSCHILKGFTLNPDKKTCRR | 3.77
TDDSYSCCCLKGFTLNPDKKTCRR | 2.05
TDDSYSCICLKGFTLNPDKKTCRR | 2.27
TDDSYSCDCLKGFTLNPDKKTCRR | 2.05
TDDSYSCLCLKGFTLNPDKKTCRR | 2.4
TDDSYSCYCLKGFTLNPDKKTCRR | 2.71
TDDSYSCVCLKGFTLNPDKKTCRR | 2.33
TDDSYSCMCLKGFTLNPDKKTCRR | 2.92
TDDSYSCKCLKGFTLNPDKKTCRR | 4.02
TDDSYSCGCLKGFTLNPDKKTCRR | 2.76
TDDSYSCFCLKGFTLNPDKKTCRR | 2.14
TDDSYSCPCLKGFTLNPDKKTCRR | 1.63
TDDSYSCECLKGFTLNPDKKTCRR | 2.84
TDDSYSCWCLKGFTLNPDKKTCRR | 2.63
TDDSYSCACLKGFTLNPDKKTCRR | 1.66
TDDSYSCSCLKGFTLNPDKKTCRR | 2.3
TDDSYSCRCLKGFTLNPDKKTCRR | 2.51
TDDSYSCNCLKGFTLNPDKKTCRR | 1.91
TDDSYSCTCLKGFTLNPDKKTCRR | 2.08
TDDSYSCQCLKGFTLNPDKKTCRR | 2.18
TDDSYSCHCSKGFTLNPDKKTCRR | 2.55

Variant | protein stability index
TDDSYSCHCWKGFTLNPDKKTCRR | 2.98
TDDSYSCHCIKGFTLNPDKKTCRR | 2.15
TDDSYSCHCKKGFTLNPDKKTCRR | 2.63
TDDSYSCHCFKGFTLNPDKKTCRR | 2.46
TDDSYSCHCTKGFTLNPDKKTCRR | 1.93
TDDSYSCHCEKGFTLNPDKKTCRR | 2.22
TDDSYSCHCQKGFTLNPDKKTCRR | 1.77
TDDSYSCHCVKGFTLNPDKKTCRR | 1.72
TDDSYSCHCAKGFTLNPDKKTCRR | 2.48
TDDSYSCHCNKGFTLNPDKKTCRR | 3.04
TDDSYSCHCPKGFTLNPDKKTCRR | 3.56
TDDSYSCHCCKGFTLNPDKKTCRR | 3.11
TDDSYSCHCDKGFTLNPDKKTCRR | 3.55
TDDSYSCHCHKGFTLNPDKKTCRR | 1.86
TDDSYSCHCRKGFTLNPDKKTCRR | 1.65
TDDSYSCHCGKGFTLNPDKKTCRR | 2.91
TDDSYSCHCMKGFTLNPDKKTCRR | 1.9
TDDSYSCHCYKGFTLNPDKKTCRR | 2.32
TDDSDSCHCLKGFTLNPDKKTCRR | 2.72
TDDSISCHCLKGFTLNPDKKTCRR | 2.06
TDDSWSCHCLKGFTLNPDKKTCRR | 2.23
TDDSESCHCLKGFTLNPDKKTCRR | 2.74
TDDSVSCHCLKGFTLNPDKKTCRR | 2.86
TDDSLSCHCLKGFTLNPDKKTCRR | 3.53

Variant | protein stability index
TDDSMSCHCLKGFTLNPDKKTCRR | 3.58
TDDSQSCHCLKGFTLNPDKKTCRR | 3.42
TDDSKSCHCLKGFTLNPDKKTCRR | 2.65
TDDSNSCHCLKGFTLNPDKKTCRR | 3.36
TDDSHSCHCLKGFTLNPDKKTCRR | 2.66
TDDSGSCHCLKGFTLNPDKKTCRR | 2.69
TDDSRSCHCLKGFTLNPDKKTCRR | 2
TDDSFSCHCLKGFTLNPDKKTCRR | 2.36
TDDSTSCHCLKGFTLNPDKKTCRR | 2.58
TDDSPSCHCLKGFTLNPDKKTCRR | 2.14
TDDSASCHCLKGFTLNPDKKTCRR | 3.04
TDDSSSCHCLKGFTLNPDKKTCRR | 2.66
TDDSYSAHCLKGFTLNPDKKTCRR | 4.59
TDDSYSKHCLKGFTLNPDKKTCRR | 4.21
TDDSYSTHCLKGFTLNPDKKTCRR | 4.54
TDDSYSHHCLKGFTLNPDKKTCRR | 3.54
TDDSYSFHCLKGFTLNPDKKTCRR | 3.96
TDDSYSPHCLKGFTLNPDKKTCRR | 3.65
TDDSYSYHCLKGFTLNPDKKTCRR | 3.71
TDDSYSNHCLKGFTLNPDKKTCRR | 4.38
TDDSYSEHCLKGFTLNPDKKTCRR | 4.61
TDDSYSGHCLKGFTLNPDKKTCRR | 4.45
TDDSYSLHCLKGFTLNPDKKTCRR | 4.59
TDDSYSRHCLKGFTLNPDKKTCRR | 3.88

Variant | protein stability index
TDDSYSWHCLKGFTLNPDKKTCRR | 3.21
TDDSYSDHCLKGFTLNPDKKTCRR | 4.78
TDDSYSSHCLKGFTLNPDKKTCRR | 4.54
TDDSYSQHCLKGFTLNPDKKTCRR | 4.27
TDDSYSVHCLKGFTLNPDKKTCRR | 4.28
TDDSYSIHCLKGFTLNPDKKTCRR | 3.9
TDDSYSMHCLKGFTLNPDKKTCRR | 4.22
TDDSYPCHCLKGFTLNPDKKTCRR | 2.5
TDDSYRCHCLKGFTLNPDKKTCRR | 2.4
TDDSYYCHCLKGFTLNPDKKTCRR | 2.12
TDDSYNCHCLKGFTLNPDKKTCRR | 1.93
TDDSYQCHCLKGFTLNPDKKTCRR | 1.76
TDDSYGCHCLKGFTLNPDKKTCRR | 2.4
TDDSYVCHCLKGFTLNPDKKTCRR | 3.42
TDDSYLCHCLKGFTLNPDKKTCRR | 2.15
TDDSYHCHCLKGFTLNPDKKTCRR | 2.55
TDDSYMCHCLKGFTLNPDKKTCRR | 1.68
TDDSYECHCLKGFTLNPDKKTCRR | 2.31
TDDSYFCHCLKGFTLNPDKKTCRR | 1.26
TDDSYICHCLKGFTLNPDKKTCRR | 1.89
TDDSYCCHCLKGFTLNPDKKTCRR | 2.55
TDDSYKCHCLKGFTLNPDKKTCRR | 3.07
TDDSYDCHCLKGFTLNPDKKTCRR | 2.94
TDDSYTCHCLKGFTLNPDKKTCRR | 2.19

Variant | protein stability index
TDDSYWCHCLKGFTLNPDKKTCRR | 2.32
TDDSYSCHCLKNFTLNPDKKTCRR | 2.24
TDDSYSCHCLKYFTLNPDKKTCRR | 1.73
TDDSYSCHCLKDFTLNPDKKTCRR | 2.19
TDDSYSCHCLKSFTLNPDKKTCRR | 2.1
TDDSYSCHCLKWFTLNPDKKTCRR | 2.01
TDDSYSCHCLKVFTLNPDKKTCRR | 1.79
TDDSYSCHCLKAFTLNPDKKTCRR | 2.45
TDDSYSCHCLKMFTLNPDKKTCRR | 1.9
TDDSYSCHCLKTFTLNPDKKTCRR | 2.39
TDDSYSCHCLKEFTLNPDKKTCRR | 2.27
TDDSYSCHCLKQFTLNPDKKTCRR | 2.85
TDDSYSCHCLKCFTLNPDKKTCRR | 2.54
TDDSYSCHCLKPFTLNPDKKTCRR | 2.63
TDDSYSCHCLKLFTLNPDKKTCRR | 2.45
TDDSYSCHCLKIFTLNPDKKTCRR | 1.78
TDDSYSCHCLKHFTLNPDKKTCRR | 2.91
TDDSYSCHCLKKFTLNPDKKTCRR | 2.41
TDDSYSCHCLKRFTLNPDKKTCRR | 2.08
TDDSYSCHCLKFFTLNPDKKTCRR | 1.98
